Reference: patent US20050048070A1

Legend:
[1] = molecular target: K8(1-124)/K18(1-124) heterotypic complex (human) (UniProt P05787); assay: SPR (BIAcore), complex immobilized, COU-1 injected
[2] = molecular target: K8(1-124)/intact K18 heterotypic complex (human) (UniProt P05787); assay: SPR (BIAcore), complex immobilized, COU-1 injected
[3] = molecular target: lysate of the colon cancer cell line colon 137 (COU-1 antigen positive); assay: ELISA on coated colon 137 lysate

Row | Ka [1] [M⁻¹] | Kd [1] [nM] | koff [1] [s⁻¹] | kon [1] [M⁻¹ s⁻¹] | Ka [2] [M⁻¹] | Kd [2] [nM] | koff [2] [s⁻¹] | kon [2] [M⁻¹ s⁻¹] | concentration needed for saturation [3] [µg/mL] | Binder
1 | 9.5e+08 | 1.05 | 0.0003 | 280000 | 1.4e+09 | 0.71 | 0.00012 | 170000 | 1 | human monoclonal IgM antibody COU-1 (antibody, V domains shown) VH: GAEVKKPGASVKVSCKASDYTFSSYYMHWVRQAPGQGLEWMGIINPSGGSTSYAQKFQGRVTMTRDTSTNTVYMELSSLRSEDTAVYYCARDQVVVAATLSNYGMDVWGQGTTVTVSS VL: ELTQSPGTLSLSPGERATLSCRASQSVSSSYLAWYQQKPGQAPRLLIYDASNRATGIPARFSGSGSGTDFTLTISSLEPEDFAVYYCQQGTNWGIAFGQGTRLDIKR
2 |  |  |  |  |  |  |  |  | 20 | recombinant B9165 Fab (Fab, V domains shown) VH: GAEVKKPGASVKVSCKASDYTFSSYYMHWVRQAPGQGLEWMGIINPSGGSTSYAQKFQGRVTMTRDTSTNTVYMELSSLRSEDTAVYYCARDQVVVAATLSNYGMDVWGQGTTVTVSS VL: ELTQSPGTLSLSPGERATLSCRASQSVSSSYLAWYQQKPGQAPRLLIYDASNRATGIPARFSGSGSGTDFTLTISSLEPEDFAVYYCQQGTNWGIAFGQGTRLDIKR
